According to patent US20220064329A1 (Novo Nordisk, published 2022):

T1: recombinant human activated Factor VII (FVIIa) (human, UniProt P08709 61-212; P08709 213-466, ten glutamate residues of the Gla domain may be gamma-carboxylated)
T1 construct: chains tethered by a disulfide bond; also called Factor VIIa; rFVIIa
T1 sequence 1: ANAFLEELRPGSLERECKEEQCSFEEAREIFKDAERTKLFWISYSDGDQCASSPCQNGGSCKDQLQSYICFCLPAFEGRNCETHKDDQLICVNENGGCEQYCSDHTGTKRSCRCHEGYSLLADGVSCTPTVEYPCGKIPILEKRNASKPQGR
T1 sequence 2: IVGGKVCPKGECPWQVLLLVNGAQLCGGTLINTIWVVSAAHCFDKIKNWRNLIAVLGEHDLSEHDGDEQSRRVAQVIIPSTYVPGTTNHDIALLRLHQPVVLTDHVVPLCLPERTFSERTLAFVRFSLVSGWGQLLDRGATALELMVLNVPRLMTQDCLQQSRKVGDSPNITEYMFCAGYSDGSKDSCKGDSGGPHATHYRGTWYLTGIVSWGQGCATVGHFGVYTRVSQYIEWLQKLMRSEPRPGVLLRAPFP


Target: T1, recombinant human activated Factor VII …
Assay: BLI (Fortebio)

| Binder | Kd [nM] |
| --- | --- |
| VH SEQ ID NO 530 / VL SEQ ID NO 398 (antibody, IgG4, V domains shown, humanized 11F2; IgG4 S228P/kappa) VH: QVQLQESGPGLVEPSQTLSLTCTVSGYSISSDSAWSWIRQPPGKGLEWIGYIQYSGSTNYNPSLKSRVTISRDTSKNQFSLKLSSVTAADTAVYYCARSVNYYGNSFAVGYWGQGTLVTVSS VL: EIVLTQSPATLSLSPGERATLSCRASQGVSDYLAWYQQKPGEAPRLLIKYTSQPATGIPARFSGSGSGTDFTLTISSLEPEDFAVYYCQNGHSFPLTFGQGTKLEIK | 7.1 |
| VH SEQ ID NO 530 / VL SEQ ID NO 446 (antibody, IgG4, V domains shown, humanized 11F2; IgG4 S228P/kappa) VH: QVQLQESGPGLVEPSQTLSLTCTVSGYSISSDSAWSWIRQPPGKGLEWIGYIQYSGSTNYNPSLKSRVTISRDTSKNQFSLKLSSVTAADTAVYYCARSVNYYGNSFAVGYWGQGTLVTVSS VL: EIVLTQSPATLSLSPGERATLSCRASQGVSDYLAWYQQKPGQAPRLLIKYTSQPATGIPARFSGSGSGTDFTLTISSLEPEDFAVYYCQNGHSFPLTFGQGTKLEIK | 7.9 |
| VH SEQ ID NO 530 / VL SEQ ID NO 438 (antibody, IgG4, V domains shown, humanized 11F2; IgG4 S228P/kappa) VH: QVQLQESGPGLVEPSQTLSLTCTVSGYSISSDSAWSWIRQPPGKGLEWIGYIQYSGSTNYNPSLKSRVTISRDTSKNQFSLKLSSVTAADTAVYYCARSVNYYGNSFAVGYWGQGTLVTVSS VL: EIVLTQSPATLSLSPGERATLSCRASQGVSDYLAWYQQKPGQAPRLLIKYASQPATGIPARFSGSGSGTDFTLTISSLEPEDVAVYYCQNGHSFPLTFGQGTKLEIK | 4.6 |
| VH SEQ ID NO 530 / VL SEQ ID NO 422 (antibody, IgG4, V domains shown, humanized 11F2; IgG4 S228P/kappa) VH: QVQLQESGPGLVEPSQTLSLTCTVSGYSISSDSAWSWIRQPPGKGLEWIGYIQYSGSTNYNPSLKSRVTISRDTSKNQFSLKLSSVTAADTAVYYCARSVNYYGNSFAVGYWGQGTLVTVSS VL: EIVLTQSPATLSLSPGERATLSCRASQGVSDYLAWYQQKPGQAPRLLIKYASQPATGIPARFSGSGSGTDFTLTISSLEPEDFAVYYCQQGHSFPLTFGQGTKLEIK | 26 |
| VH SEQ ID NO 530 / VL SEQ ID NO 454 (antibody, IgG4, V domains shown, humanized 11F2; IgG4 S228P/kappa) VH: QVQLQESGPGLVEPSQTLSLTCTVSGYSISSDSAWSWIRQPPGKGLEWIGYIQYSGSTNYNPSLKSRVTISRDTSKNQFSLKLSSVTAADTAVYYCARSVNYYGNSFAVGYWGQGTLVTVSS VL: EIVLTQSPATLSLSPGERATLSCRASQGVSDYLHWYQQKPGEAPRLLIKYASQPATGIPARFSGSGSGTDFTLTISSLEPEDFAVYYCQNGHSFPLTFGQGTKLEIK | 1.1 |
| VH SEQ ID NO 530 / VL SEQ ID NO 430 (antibody, IgG4, V domains shown, humanized 11F2; IgG4 S228P/kappa) VH: QVQLQESGPGLVEPSQTLSLTCTVSGYSISSDSAWSWIRQPPGKGLEWIGYIQYSGSTNYNPSLKSRVTISRDTSKNQFSLKLSSVTAADTAVYYCARSVNYYGNSFAVGYWGQGTLVTVSS VL: EIVLTQSPATLSLSPGERATLSCRASQGVSDYLAWYQQKPGQAPRLLIKYASQPATGIPARFSGSGSGTDFTLTISSLEPEDFGVYYCQNGHSFPLTFGQGTKLEIK | 4.9 |
| VH SEQ ID NO 530 / VL SEQ ID NO 414 (antibody, IgG4, V domains shown, humanized 11F2; IgG4 S228P/kappa) VH: QVQLQESGPGLVEPSQTLSLTCTVSGYSISSDSAWSWIRQPPGKGLEWIGYIQYSGSTNYNPSLKSRVTISRDTSKNQFSLKLSSVTAADTAVYYCARSVNYYGNSFAVGYWGQGTLVTVSS VL: EIVLTQSPATLSLSPGERATLSCRASQGVSDYLAWYQQKPGQAPRLLIKYASQPATGIPARFSGSGSGTDFTLTISSLEPEDFAVYYCQNGHSFPLTFGQGTKLEIK | 4.5 |
| VH SEQ ID NO 530 / VL SEQ ID NO 406 (antibody, IgG4, V domains shown, humanized 11F2; IgG4 S228P/kappa) VH: QVQLQESGPGLVEPSQTLSLTCTVSGYSISSDSAWSWIRQPPGKGLEWIGYIQYSGSTNYNPSLKSRVTISRDTSKNQFSLKLSSVTAADTAVYYCARSVNYYGNSFAVGYWGQGTLVTVSS VL: EIVLTQSPATLSLSPGERATLSCRASQGVSDYLAWYQQKPGQAPRLLIKYASQPATGIPARFSGSGSGTDFTLTISSLEPEDFAVYYCQNGHSFPLTFGAGTKLEIK | 4.3 |
| VH SEQ ID NO 530 / VL SEQ ID NO 462 (antibody, IgG4, V domains shown, humanized 11F2; IgG4 S228P/kappa) VH: QVQLQESGPGLVEPSQTLSLTCTVSGYSISSDSAWSWIRQPPGKGLEWIGYIQYSGSTNYNPSLKSRVTISRDTSKNQFSLKLSSVTAADTAVYYCARSVNYYGNSFAVGYWGQGTLVTVSS VL: EIVLTQSPATLSLSPGERATLSCRASQGVSDYLHWYQQKPGQAPRLLIKYASQPATGIPARFSGSGSGTDFTLTISSLEPEDFAVYYCQNGHSFPLTFGAGTKLEIK | 1 |

Second part, the binder after the results:

| Kd [nM] | Binder |
| --- | --- |
| 1.4 | VH SEQ ID NO 530 / VL SEQ ID NO 478 (antibody, IgG4, V domains shown, humanized 11F2; IgG4 S228P/kappa) VH: QVQLQESGPGLVEPSQTLSLTCTVSGYSISSDSAWSWIRQPPGKGLEWIGYIQYSGSTNYNPSLKSRVTISRDTSKNQFSLKLSSVTAADTAVYYCARSVNYYGNSFAVGYWGQGTLVTVSS VL: EIVLTQSPATLSLSPGERATLSCRASQGVSDYLHWYQQKPGQAPRLLIKYASQPATGIPARFSGSGSGTDFTLTISSLEPEDFAVYYCQQGHSFPLTFGQGTKLEIK |
| 1.2 | VH SEQ ID NO 538 / VL SEQ ID NO 342 (antibody, IgG4, V domains shown, humanized 11F2; IgG4 S228P/kappa) VH: QVQLQESGPGLVEPSQTLSLTCTVSGYSITSDSAWSWIRQPPGKKLEWIGYIQYSGSTNYNPSLKSRVTISRDTSKNQFSLKLSSVTAADTAVYYCARSVNYYGNSFAVGYWGQGTLVTVSS VL: EIVLTQSPATLSLSPGERATLSCRASQGISDYLHWYQQKPGQAPRLLIKYTSQPATGIPARFSGSGSGRDFTLTISSLEPEDFAVYYCQNGHSFPLTFGAGTKLELK |
| 1 | VH SEQ ID NO 530 / VL SEQ ID NO 494 (antibody, IgG4, V domains shown, humanized 11F2; IgG4 S228P/kappa) VH: QVQLQESGPGLVEPSQTLSLTCTVSGYSISSDSAWSWIRQPPGKGLEWIGYIQYSGSTNYNPSLKSRVTISRDTSKNQFSLKLSSVTAADTAVYYCARSVNYYGNSFAVGYWGQGTLVTVSS VL: EIVLTQSPATLSLSPGERATLSCRASQGVSDYLHWYQQKPGQAPRLLIKYASQPATGIPARFSGSGSGTDFTLTISSLEPEDVAVYYCQNGHSFPLTFGQGTKLEIK |
| 1 | VH SEQ ID NO 538 / VL SEQ ID NO 350 (antibody, IgG4, V domains shown, humanized 11F2; IgG4 S228P/kappa) VH: QVQLQESGPGLVEPSQTLSLTCTVSGYSITSDSAWSWIRQPPGKKLEWIGYIQYSGSTNYNPSLKSRVTISRDTSKNQFSLKLSSVTAADTAVYYCARSVNYYGNSFAVGYWGQGTLVTVSS VL: EIVLTQSPATLSLSPGERATLSCRASQGISDYLHWYQQKPGQAPRLLIKYTSQPATGIPARFSGSGSGTDFTLTISSLEPEDFAVYYCQNGHSFPLTFGAGTKLELK |
| 0.58 | VH SEQ ID NO 538 / VL SEQ ID NO 326 (antibody, IgG4, V domains shown, humanized 11F2; IgG4 S228P/kappa) VH: QVQLQESGPGLVEPSQTLSLTCTVSGYSITSDSAWSWIRQPPGKKLEWIGYIQYSGSTNYNPSLKSRVTISRDTSKNQFSLKLSSVTAADTAVYYCARSVNYYGNSFAVGYWGQGTLVTVSS VL: EIVLTQSPATLSLSPGERATLSCRASQGISDYLHWYQQKPGEAPRLLIKYTSQPATGIPARFSGSGSGTDFTLTISSLEPEDFGVYYCQNGHSFPLTFGAGTKLELK |
| 0.94 | VH SEQ ID NO 530 / VL SEQ ID NO 502 (antibody, IgG4, V domains shown, humanized 11F2; IgG4 S228P/kappa) VH: QVQLQESGPGLVEPSQTLSLTCTVSGYSISSDSAWSWIRQPPGKGLEWIGYIQYSGSTNYNPSLKSRVTISRDTSKNQFSLKLSSVTAADTAVYYCARSVNYYGNSFAVGYWGQGTLVTVSS VL: EIVLTQSPATLSLSPGERATLSCRASQGVSDYLHWYQQKPGQAPRLLIKYTSQPATGIPARFSGSGSGTDFTLTISSLEPEDFAVYYCQNGHSFPLTFGQGTKLEIK |
| 0.99 | VH SEQ ID NO 530 / VL SEQ ID NO 486 (antibody, IgG4, V domains shown, humanized 11F2; IgG4 S228P/kappa) VH: QVQLQESGPGLVEPSQTLSLTCTVSGYSISSDSAWSWIRQPPGKGLEWIGYIQYSGSTNYNPSLKSRVTISRDTSKNQFSLKLSSVTAADTAVYYCARSVNYYGNSFAVGYWGQGTLVTVSS VL: EIVLTQSPATLSLSPGERATLSCRASQGVSDYLHWYQQKPGQAPRLLIKYASQPATGIPARFSGSGSGTDFTLTISSLEPEDFGVYYCQNGHSFPLTFGQGTKLEIK |
| 2.5 | VH SEQ ID NO 538 / VL SEQ ID NO 310 (antibody, IgG4, V domains shown, humanized 11F2; IgG4 S228P/kappa) VH: QVQLQESGPGLVEPSQTLSLTCTVSGYSITSDSAWSWIRQPPGKKLEWIGYIQYSGSTNYNPSLKSRVTISRDTSKNQFSLKLSSVTAADTAVYYCARSVNYYGNSFAVGYWGQGTLVTVSS VL: EIVLTQSPATLSLSPGERATLSCRASQGISDYLAWYQQKPGQAPRLLIKYASQPATGIPARFSGSGSGTDFTLTISSLEPEDFAVYYCQNGHSFPLTFGQGTKLEIK |
| 0.97 | VH SEQ ID NO 538 / VL SEQ ID NO 334 (antibody, IgG4, V domains shown, humanized 11F2; IgG4 S228P/kappa) VH: QVQLQESGPGLVEPSQTLSLTCTVSGYSITSDSAWSWIRQPPGKKLEWIGYIQYSGSTNYNPSLKSRVTISRDTSKNQFSLKLSSVTAADTAVYYCARSVNYYGNSFAVGYWGQGTLVTVSS VL: EIVLTQSPATLSLSPGERATLSCRASQGISDYLHWYQQKPGQAPRLLIKYASQPATGIPARFSGSGSGTDFTLTISSLEPEDFAVYYCQNGHSFPLTFGQGTKLEIK |
| 0.96 | VH SEQ ID NO 530 / VL SEQ ID NO 470 (antibody, IgG4, V domains shown, humanized 11F2; IgG4 S228P/kappa) VH: QVQLQESGPGLVEPSQTLSLTCTVSGYSISSDSAWSWIRQPPGKGLEWIGYIQYSGSTNYNPSLKSRVTISRDTSKNQFSLKLSSVTAADTAVYYCARSVNYYGNSFAVGYWGQGTLVTVSS VL: EIVLTQSPATLSLSPGERATLSCRASQGVSDYLHWYQQKPGQAPRLLIKYASQPATGIPARFSGSGSGTDFTLTISSLEPEDFAVYYCQNGHSFPLTFGQGTKLEIK |
| 0.64 | VH SEQ ID NO 538 / VL SEQ ID NO 318 (antibody, IgG4, V domains shown, humanized 11F2; IgG4 S228P/kappa) VH: QVQLQESGPGLVEPSQTLSLTCTVSGYSITSDSAWSWIRQPPGKKLEWIGYIQYSGSTNYNPSLKSRVTISRDTSKNQFSLKLSSVTAADTAVYYCARSVNYYGNSFAVGYWGQGTLVTVSS VL: EIVLTQSPATLSLSPGERATLSCRASQGISDYLHWYQQKPGEAPRLLIKYTSQPATGIPARFSGSGSGTDFTLTISSLEPEDFAVYYCQNGHSFPLTFGQGTKLEIK |
